Measurements taken from patent EP1516629B1.

Assays:
[1] = molecular target: rhesus CD18 (rhesus) (UniProt H9Z8N5); assay: saturation binding, rhesus leukocytes, donor 2, Kd(app)
[2] = molecular target: rhesus CD18 (rhesus) (UniProt H9Z8N5); assay: cell-based or functional assay
[3] = molecular target: human CD18 (human) (UniProt P05107); assay: cell-based or functional assay
[4] = molecular target: rhesus CD18 (rhesus) (UniProt H9Z8N5); assay: saturation binding, rhesus leukocytes, donor 1, Kd(app)

human CD18 (human), sequence (P05107 23-769): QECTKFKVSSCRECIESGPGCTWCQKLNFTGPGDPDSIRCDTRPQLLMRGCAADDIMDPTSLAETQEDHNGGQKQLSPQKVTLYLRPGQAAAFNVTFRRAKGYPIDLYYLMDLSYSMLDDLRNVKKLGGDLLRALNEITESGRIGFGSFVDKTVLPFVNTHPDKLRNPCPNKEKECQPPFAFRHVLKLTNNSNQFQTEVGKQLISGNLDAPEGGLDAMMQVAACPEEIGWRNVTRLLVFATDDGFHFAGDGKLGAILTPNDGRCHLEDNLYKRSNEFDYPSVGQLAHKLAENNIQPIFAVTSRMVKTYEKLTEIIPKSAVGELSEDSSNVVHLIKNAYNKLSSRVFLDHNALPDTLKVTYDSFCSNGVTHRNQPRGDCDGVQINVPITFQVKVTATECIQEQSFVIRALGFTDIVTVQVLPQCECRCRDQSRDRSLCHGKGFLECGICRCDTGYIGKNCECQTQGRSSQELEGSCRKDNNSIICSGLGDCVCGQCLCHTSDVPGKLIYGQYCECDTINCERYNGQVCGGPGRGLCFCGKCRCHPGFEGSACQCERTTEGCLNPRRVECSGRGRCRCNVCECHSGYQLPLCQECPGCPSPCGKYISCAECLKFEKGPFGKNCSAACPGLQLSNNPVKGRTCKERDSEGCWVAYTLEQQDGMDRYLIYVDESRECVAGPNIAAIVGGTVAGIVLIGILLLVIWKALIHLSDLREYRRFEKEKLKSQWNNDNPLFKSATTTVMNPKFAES

- Kd [1]: 4.5 nM
- IC50, blocking of cell adhesion, RhLy:HuICAM [2]: 1.2 nM
- IC50, blocking of cell adhesion, RhLy:HuK [2]: 1.6 nM
- IC50, blocking of cell adhesion, Rh/HuCD11a:HuK [3]: 1.4 nM
- Kd [4]: 3.9 nM
Substance: murine anti-human CD18 antibody MHM23
